From patent US7572600B2, “Enzymatic activities in chemokine-mediated inflammation” (Chemocentryx, Inc., priority 2004, dated 2009)
Like-named read-outs stand apart in the source and are kept apart here. One block for each molecule: values may come before it. Where no end group is shown, it is not given here.

How the values were obtained:
[1] = biological target: T1, FPRL1 (Homo sapiens, UniProt P25090); assay: Receptor signaling (calcium mobilization) in L1.2-FPRL1 cells; type: cell-based; parameters: expressed in transfected cells; details: for calcium mobilization in the FPRL1 transfectant: L1.2 cells stably expressing human FPRL1, undigested; for Designation and FPRL1 Activity: SHAAGtide and truncated/other variants
T1 sequence (P25090 1-351): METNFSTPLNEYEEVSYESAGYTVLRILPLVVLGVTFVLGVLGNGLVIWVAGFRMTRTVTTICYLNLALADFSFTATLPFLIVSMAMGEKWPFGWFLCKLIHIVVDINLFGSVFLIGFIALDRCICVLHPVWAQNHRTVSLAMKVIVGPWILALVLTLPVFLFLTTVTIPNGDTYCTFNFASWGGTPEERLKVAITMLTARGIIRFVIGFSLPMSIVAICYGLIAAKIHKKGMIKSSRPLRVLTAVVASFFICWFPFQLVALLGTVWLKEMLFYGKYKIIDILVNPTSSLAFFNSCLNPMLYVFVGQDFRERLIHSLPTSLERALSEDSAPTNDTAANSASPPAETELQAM
Experimental: (§1) Receptor signaling assay. For individual measurements, cells were loaded for 45 min at room temperature with 2 μM indo-1/AM (Invitrogen, Carlsbad Calif.) in culture medium, then washed with 10 ml PBS and resuspended at 10^6 cells/ml in HBSS containing 0.1% BSA. Cytosolic calcium levels were determined using a Photon Technology International fluorimeter (excitation at 350 nm, ratio of dual emission at 400 and 490 nm). For measuring calcium dose responses, cells were analyzed with a Fluorometric Imaging Plate Reader 384 (FLIPR^384) (Molecular Devices, Sunnyvale, Calif.). Cells were loaded for 1 hr at 37° C. with 5 μM fluo-4 in HBSS with 0.1% BSA, then washed, transferred to black-wall 96-well plates, and subsequently excited at 505 nm with emission recorded at 530 nm with a standard protocol provided by the manufacture. Cells were stimulated with agonists 20 s after the monitoring of fluorescence began. Data were analyzed and plotted in arbitrary units of fluorescence using Prism. To ensure that responses were specific to FPRL1, we utilized a selective small-molecule antagonist of human FPRL1, generated by ChemoCentryx, which was optimized from a high throughput compound library screening approach.
Since FPRL1 has been reported to interact with low affinity and/or potency with a spectrum of potential pathogenic ligands of viral, bacterial and endogenous origin, we performed comparative functional analyses to determine the precise functional domain for the SHAAGtide (FIG. 14). SHAAGtides containing N-terminal and C-terminal truncations and extensions were synthesized, and potencies for receptor signaling in L1.2-FPRL1 cells were tested. […] After removal of the N-terminal amino acid (Met) from SHAAGtide, its potency is reduced approximately 10 fold. Removal of the first two N-terminal amino acids (Met-Leu) totally abolished SHAAGtide's activity on FPRL1. Conversely, removal of the C-terminal three amino residues (AAG) from SHAAGtide had no effect on its activity on FPRL1. Removal of the C-terminal six residues (LSHAAG) reduced the peptide's potency only 3-fold. Many other purported naturally-occurring FPRL1 ligands, including serum amyloid A (SAA), beta-amyloid protein 42, lipoxin A4 and the bacterial tripeptide fMLP were tested.

[2] = tested on: human neutrophils; assay: Calcium mobilization in freshly isolated human neutrophils; type: cell-based
Experimental: (§2) Calcium Mobilization Assay. Cells were loaded for 1 hour with 2 μM indo-1/AM dye (Molecular Probes, Eugene, Oreg.) in culture medium, then washed with 10 ml PBS and resuspended at 10^6/ml in HBSS containing 1% FBS. Cytosolic calcium responses were determined using a Photon Technology International (Lawrenceville, N.J.) fluorimeter, with excitation at 350 nm and dual emission at 400 and 490 nm. Alternatively, cells were loaded with 5 μg/ml Fluo-4 AM dye (Molecular Probes, Eugene, Oreg.), then washed and analyzed on a Fluorometric Imaging Plate Reader 384 (FLIPR^384 Molecular Devices, Sunnyvale, Calif.), with 505 nm excitation and 530 nm emission.
as §1

[3] = tested on: THP-1 cells; assay: THP-1 chemotaxis assay; type: cell-based, human; details: for EC50: THP-1 cells
Experimental: Chemotaxis assay. L1.2-CCR1 transfectants, THP-1 cells, human monocytes and human neutrophils were collected by centrifugation and resuspended in HBSS containing 0.1% BSA. Chemotaxis assays were performed in 96-well ChemoTx® microplates (Neuroprobe, Rockville, Md.) as follows. Chemokines were added to the lower wells (final volume 29 μL), and 20 μL of cell suspension (5×10^6 cells/mL) was added to the polycarbonate filter (3 μm pore size for neutrophils, 5 μm for other 3 cell types). After incubation at 37° C. in the presence of 5% CO2 for 1 hr (neutrophils), 90 min (monocytes) or 2 h (THP-1 and L1.2-CCR1), cells were removed from the upper surface of the filter by scraping. Cells that migrated into the lower chamber were quantified by using the CyQuant cell proliferation assay kit (Molecular Probes, Eugene, Oreg.) and analyzed with a Tecan (Durham, N.C.) fluorimeter (excitation at 480 nm, emission at 530 nm). Data were analyzed and plotted in arbitrary units of fluorescence using Prism (GraphPad Software, San Diego, Calif.).

[4] = biological target: T2, CCR1 (Homo sapiens, UniProt P32246); assay: Calcium mobilization in murine L1.2 cells expressing human CCR1; type: cell-based; parameters: expressed in transfected cells; host or cells: murine L1.2 cells (G-418 selected transfectant); details: L1.2-CCR1 cells
T2 sequence (P32246 1-355): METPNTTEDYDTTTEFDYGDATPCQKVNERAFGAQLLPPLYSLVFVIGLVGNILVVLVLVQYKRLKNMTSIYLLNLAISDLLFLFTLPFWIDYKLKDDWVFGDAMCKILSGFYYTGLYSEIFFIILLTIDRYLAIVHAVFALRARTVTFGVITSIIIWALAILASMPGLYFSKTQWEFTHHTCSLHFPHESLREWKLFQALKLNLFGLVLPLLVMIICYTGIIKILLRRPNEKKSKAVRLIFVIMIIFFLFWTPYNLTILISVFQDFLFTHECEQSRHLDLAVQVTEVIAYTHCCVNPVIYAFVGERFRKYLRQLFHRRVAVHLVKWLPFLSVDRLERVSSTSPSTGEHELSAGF
Experimental: as §2, §1

[5] = tested on: human monocytes; assay: Calcium mobilization in freshly isolated human monocytes; type: cell-based; details: undigested chemokine or peptide, 100 nM (CCL23β up to 250 nM)
Experimental: as §2, §1

[6] = biological target: T2, CCR1; assay: Competition binding with 125I-MIP-1α on human monocytes; parameters: endogenous in cells; host or cells: human CD14+ monocytes from buffy coats
Experimental: Binding assay. Competition binding studies were conducted using monocytes, L1.2-CCR1 or L1.2-FPRL1 cells. Cells were incubated for 3 hr at 4° C. with ^125I-MIP-1α (final concentration ˜0.05 nM) or ^125I-WKYMVm (final concentration ˜0.01 nM) in buffer (25 mM HEPES, 140 mM NaCl, 1 mM CaCl2, 5 mM MgCl2 and 0.2% BSA, adjusted to pH 7.1) in the presence of increasing amounts of unlabeled chemokine. Reactions were aspirated onto PEI-treated GF/B glass filters using a cell harvester (Packard). Filters were washed twice (25 mM HEPES, 500 mM NaCl, 1 mM CaCl2, 5 mM MgCl2, adjusted to pH 7.1). Scintillant (MicroScint-10; 35 μl) was added to the filters and counted in a Packard Topcount scintillation counter. Data were analyzed and plotted using Prism (GraphPad Software, San Diego, Calif.).

[7] = undigested chemokine or peptide (100 nM)
[8] = 10 nM input chemokine, after digestion with proteases and fluids
[9] = 10 nM, undigested or recombinant chemokine
[10] = chemokine after digestion with PMN sup #1, read-out: EC50, chemotaxis
[11] = chemokine after digestion with chymase, read-out: EC50, chemotaxis

calcium mobilization in the FPRL1 transfectant [1]: unable to induce calcium mobilization
Molecule: 1-42 substrate peptide: synthetic 42-residue peptide consisting of the CCL23β N-terminal (1-24) and SHAAGtide (25-42) domains (MKVSVAALSCLMLVTALGSQARVTKDAETEFMMSKLPLENPV)

EC50 ([3]; 2 hr, recombinant undigested chemokine, read-out: EC50, chemotaxis): 500 pM
Molecule: CCL5/RANTES: traditional CCR1 ligand chemokine
calcium mobilization [2, 7]: not

Designation and FPRL1 Activity [1]: Low activity
Molecule: IGPQMTLSHAAG [CCXP4]

Designation and FPRL1 Activity [1]: Moderate
Molecule: LWRRKIGPQMTLSH [CCXP11]

Designation and FPRL1 Activity [1]: Moderate
Molecule: MLWRRKIGPQM [CCXP8]

Designation and FPRL1 Activity [1]: Moderate
Molecule: MLWRRKIGPQMT [CCXP5]

Designation and FPRL1 Activity [1]: High activity
Molecule: MLWRRKIGPQMTLSH [CCXP3]

Designation and FPRL1 Activity [1]: High activity
Molecule: MLWRRKIGPQMTLSHAAY [CCXP6]

Designation and FPRL1 Activity [1]: Low activity
Molecule: RRKIGPQMTLSHAAG [CCXP2]

Designation and FPRL1 Activity [1]: Low activity
Molecule: WRRKIG [CCXP10]

Designation and FPRL1 Activity [1]: Low activity
Molecule: WRRKIGPQM [CCXP9]

Designation and FPRL1 Activity [1]: Low activity
Molecule: WRRKIGPQMTLSHAAG [CCXP7]

calcium mobilization [4, 8]: greater amount of calcium
calcium mobilization [4, 9]: little calcium mobilization
EC50 ([3]; after cleavage by chymase or synovial fluid, read-out: EC50, cell migration): 50 to 60 pM
EC50 [3, 10]: 250 pM
EC50 [3, 11]: 50 pM
B1: CCL15/MIP-1δ: recombinant full-length human chemokine CCL15 (92aa) (protein, listed as Homo sapiens)
chain: QFINDAETELMMSKLPLENPVVLNSFHFAADCCTSYISQSIPCSLMKSYFETSSECSKPGVIFLTKKGRQVCAKPSGPGVQDCMKKLKPYSI
calcium mobilization ([2]; digestions at 30-50 nM): induced calcium mobilization
fold increase in chemokine potency after cleavage ([3]; THP-1 cell migration, cleavage by chymase or synovial fluid): approximately 1000 fold

calcium mobilization [4, 9]: substantially greater response
B2: CCL15Δ24/LKN-1: recombinant CCL15/MIP-1δ lacking the N-terminal 24 residues (68aa) (protein)
chain: SFHFAADCCTSYISQSIPCSLMKSYFETSSECSKPGVIFLTKKGRQVCAKPSGPGVQDCMKKLKPYSI
calcium mobilization [2, 7]: respond
calcium mobilization ([2]; undigested chemokine or peptide (100 nM), listed as CCL15 Δ24/leukotactin): only moderate calcium responses

calcium mobilization [4, 8]: uniformly active
calcium mobilization [4, 9]: either not active or weakly active
inhibition of 125I-MIP-1α binding [6]: moderate competitors
EC50 [3, 10]: 150 pM
EC50 [3, 11]: 50 pM
EC50 ([3]; chemokine after digestion with synovial fluid, read-out: EC50, chemotaxis): 250 pM
fold decrease of EC50 by chymase ([3]; THP-1 chemotaxis): 50 fold
B3: CCL23/CKβ8: recombinant full-length human chemokine CCL23 (22-120), 99-residue protein (protein, listed as Homo sapiens)
chain: RVTKDAETEFMMSKLPLENPVLLDRFHATSADCCISYTPRSIPCSLLESYFETNSECSKPGVIFLTKKGRRFCANPSDKQVQVCMRMLKLDTRIKTRKN
calcium mobilization [5]: strong calcium responses

B4: CCL3/MIP-1α: traditional CCR1 ligand chemokine; unlabelled homologous competitor in binding (protein)
chain: ADTPTACCFSYTSRQIPQNFIADYFETSSQCSKPGVIFLTKRSRQVCADPSEEWVQKYVSDLELSA
calcium mobilization [2, 7]: not and only moderate calcium responses

inhibition of 125I-MIP-1α binding [6]: lowest binding activity
calcium mobilization in the FPRL1 transfectant [1]: unable to induce calcium mobilization
B5: CCL23β: alternatively spliced form of CCL23, 116-residue protein; recombinant, R&D Systems special order (protein, listed as Homo sapiens)
chain: MKVSVAALSCLMLVTALGSQARVTKDAETEFMMSKLPLENPVLLDMLWRRKIGPQMTLSHAAGFHATSADCCISYTPRSIPCSLLESYFETNSECSKPGVIFLTKKGRRFCANPSDKQVQVCMRMLKLDTRIKTRKN
calcium mobilization [5]: very weak responses
